IntAct's records for PubMed 37595036

B1: CDK5 regulatory subunit-associated protein 3 (Homo sapiens), Q96JB5 (parent)
chain: MEDHQHVPIDIQTSKLLDWLVDRRHCSLKWQSLVLTIREKINAAIQDMPESEEIAQLLSGSYIHYFHCLRILDLLKGTEASTKNIFGRYSSQRMKDWQEIIALYEKDNTYLVELSSLLVRNVNYEIPSLKKQIAKCQQLQQEYSRKEEECQAGAAEMREQFYHSCKQYGITGENVRGELLALVKDLPSQLAEIGAAAQQSLGEAIDVYQASVGFVCESPTEQVLPMLRFVQKRGNSTVYEWRTGTEPSVVERPHLEELPEQVAEDAIDWGDFGVEAVSEGTDSGISAEAAGIDWGIFPESDSKDPGGDGIDWGDDAVALQITVLEAGTQAPEGVARGPDALTLLEYTETRNQFLDELMELEIFLAQRAVELSEEADVLSVSQFQLAPAILQGQTKEKMVTMVSVLEDLIGKLTSLQLQHLFMILASPRYVDRVTEFLQQKLKQSQLLALKKELMVQKQQEALEEQAALEPKLDLLLEKTKELQKLIEADISKRYSGRPVNLMGTSL

Variants of: B1
Settings: with ufc1_human UFC1, Q9Y3C8
Sequence of ufc1_human UFC1, Q9Y3C8 (Q9Y3C8 whole entry): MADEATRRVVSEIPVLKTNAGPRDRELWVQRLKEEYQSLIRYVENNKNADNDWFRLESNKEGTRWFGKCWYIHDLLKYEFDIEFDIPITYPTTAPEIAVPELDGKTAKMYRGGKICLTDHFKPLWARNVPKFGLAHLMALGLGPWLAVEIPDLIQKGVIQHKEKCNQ

Row | Variant | effect of a mutation on the interaction
1 | MEDHQHVPIDIQTSKLLDWLVDRRHCSLKWQSLVLTIREKINAAIQDMPESEEIAQLLSGSYIHYFHCLRILDLLKGTEASTKNIFGRYSSQRMKDWQEIIALYEKDNTYLVELSSLLVRNVNYEIPSLKKQIAKCQQLQQEYSRKEEECQAGAAEMREQFYHSCKQYGITGENVRGELLALVKDLPSQLAEIGAAAQQSLGEAIDVYQASVGFVCESPTEQVLPMLRFVQKRGNSTVYEWRTGTEPSVVERPHLEELPEQVAEDAADAGDFGVEAVSEGTDSGISAEAAGIDWGIFPESDSKDPGGDGIDWGDDAVALQITVLEAGTQAPEGVARGPDALTLLEYTETRNQFLDELMELEIFLAQRAVELSEEADVLSVSQFQLAPAILQGQTKEKMVTMVSVLEDLIGKLTSLQLQHLFMILASPRYVDRVTEFLQQKLKQSQLLALKKELMVQKQQEALEEQAALEPKLDLLLEKTKELQKLIEADISKRYSGRPVNLMGTSL [I267A;W269A] | decreasing interaction strength
